Experiments:
[1] = biological target: human Claudin 18.1 Mutant 14 (Q56E) (human, UniProt P56856 1-261); assay: FACS on HEK293A cells expressing mutant 14
[2] = biological target: T1, human Claudin 18.1 Mutant 15 (Claudin 18.1/S42A/Q45N/Q56E) (human, UniProt P56856 1-261); assay: FACS on HEK293A cells expressing mutant 15
T1 chain: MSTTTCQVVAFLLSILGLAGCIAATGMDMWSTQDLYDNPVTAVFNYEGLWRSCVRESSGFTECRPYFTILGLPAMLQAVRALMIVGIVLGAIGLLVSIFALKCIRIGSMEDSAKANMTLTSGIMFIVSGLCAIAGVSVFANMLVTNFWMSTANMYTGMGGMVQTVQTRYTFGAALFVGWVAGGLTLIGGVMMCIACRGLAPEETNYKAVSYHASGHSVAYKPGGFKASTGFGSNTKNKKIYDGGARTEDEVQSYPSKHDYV

[3] = biological target: T2, human Claudin 18.1 Mutant 16 (Claudin 18.1/S42A/Q45N/E47Q/Q56E) (human, UniProt P56856 1-261); assay: FACS on HEK293A cells expressing mutant 16
T2 chain: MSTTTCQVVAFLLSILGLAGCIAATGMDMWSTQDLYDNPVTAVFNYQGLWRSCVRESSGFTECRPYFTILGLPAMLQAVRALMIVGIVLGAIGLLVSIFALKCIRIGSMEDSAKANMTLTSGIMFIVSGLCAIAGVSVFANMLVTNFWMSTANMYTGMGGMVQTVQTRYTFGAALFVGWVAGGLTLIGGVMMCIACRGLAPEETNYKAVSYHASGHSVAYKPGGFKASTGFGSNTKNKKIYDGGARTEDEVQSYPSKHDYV

human Claudin 18.1 = biological target: T3, human Claudin 18.1 (human, UniProt P56856 1-261); assay: FACS on HEK293A cells expressing human Claudin 18.1 WT
T3 construct: Overexpressed on HEK293A cells by lentivirus

B1: 18F2-30VH7VL3 (antibody, human IgG1, kappa, V domains shown)
VH: QVQLVQSGAEVKKPGASVKVSCKASGYTFTSFWLNWVKQRPGQGLEWIGNIYPSTSYTVYNQKFKDKVTLTVDKSTSTAYMELSSLRSEDTAVYYCTRTWRGNSFDYWGQGTTVTVSS
VL: DIVMTQSPSSLTVSLGEKATISCKSSQSLLNSGNQKNYVTWYQQKPGQPPKLLIYWGSTRSTGVPDRFSGSGSGTDFTLTISSLQAEDLAVYYCQNDYTYPFTFGSGTKLEIKR
notes: Humanized, human IgG1/kappa constant regions
B1: binds [1]; binds [2]; binds [3]. B1: no binding (human Claudin 18.1).

Reference: patent publication US10421817 (BEIJING MABWORKS BIOTECH, dated 2019)
